Values belong to the binder of their own block, whether it stands above or below them.
What was measured:
HLA-A*24:02 [1] = target: T1, HLA-A*24:02 (human); test: MS validation of HLA class I-presented peptide (validation cell empty in Table 1C); sample human prostate
T1 construct: MHC class I molecule expressed by the cells or tissue sample (endogenous or BAP-tagged), immunopurified before peptide elution

HLA-A*02:01 [2] = target: T2, HLA-A*02:01 (human); test: MS validation of HLA class I-presented peptide; multiple cell lines and tumor samples
T2 construct: MHC class I molecule expressed by the cells or tissue sample (endogenous or BAP-tagged), immunopurified before peptide elution
Description: (§1) Frozen cell pellets endogenously expressing MHC molecules (untagged) or biotin acceptor peptide (BAP)-tagged MHC molecules were lysed by pipetting and end-over-end rotation for twenty minutes using lysis buffer [20 mM Tris-Cl pH 8, 100 mM NaCl, 6 mM MgCl2, 1.5% (v/v) Triton X-100, 60 mM octyl B-D-glucopyranoside, 0.2 mM of 2-Iodoacetamide, 1 mM EDTA pH 8, 1 mM PMSF, 1× complete EDTA-free protease inhibitor cocktail (Roche)] plus benzonase nuclease for twenty minutes. Tissue samples were homogenized in lysis buffer plus benzonase nuclease. All lysates were cleared by centrifugation. Samples with untagged MHC molecules were subsequently incubated with GammaBind Plus Sepharose Beads (GE Healthcare) pre-charged with a pan-HLA A/B/C antibody (clone W6/32) overnight at 4 C with end-over-end rotation. BAP-tagged samples were biotinylated with 0.56 μM biotin, 1 mM ATP, and 1 μM BirA biotin ligase for 10 minutes, and subsequently incubated with High-Capacity NeutrAvidin Agarose resin for 30 minutes at 4° C. with end-over-end rotation. Following enrichment, beads were washed 2× with wash buffer A [20 mM Tris-Cl pH 8, 100 mM, NaCl, 60 mM octyl B-D-glucopyranoside, 0.2 mM of 2-Iodoacetamide, 1 mM EDTA pH 8] and wash buffer B [10 mM Tris-Cl pH 8] using a positive pressure manifold. […]

HLA-A*02:01 [3] = target: T2, HLA-A*02:01; test: MS validation of HLA class I-presented peptide; samples lung tumor, GBM, OvCa13, breast tumor, A375, MSV000082648
Description: as §1

HLA-C*07:02 [4] = target: T3, HLA-C*07:02 (human); test: MS validation of HLA class I-presented peptide (second allele under Allele (MS)); samples MDAPCa2b, human prostate
T3 construct: MHC class I molecule expressed by the cells or tissue sample (endogenous or BAP-tagged), immunopurified before peptide elution
Description: as §1

HLA-C*07:01 [5] = target: T4, HLA-C*07:01 (human); test: MS validation of HLA class I-presented peptide; samples MDAPCa2b, human prostate
T4 construct: MHC class I molecule expressed by the cells or tissue sample (endogenous or BAP-tagged), immunopurified before peptide elution
Description: as §1

HLA-A*02:01 [6] = target: T2, HLA-A*02:01; test: MS validation of HLA class I-presented peptide; samples CAMA1, HCC1500
Description: as §1

HLA-A*24:02 [7] = target: T1, HLA-A*24:02; test: MS validation of HLA class I-presented peptide; sample human prostate
Description: (§2) Frozen cell pellets endogenously expressing MHC molecules (untagged) or biotin acceptor peptide (BAP)-tagged MHC molecules were lysed by pipetting and end-over-end rotation for twenty minutes using lysis buffer [20 mM Tris-Cl pH 8, 100 mM NaCl, 6 mM MgCl2, 1.5% (v/v) Triton X-100, 60 mM octyl B-D-glucopyranoside, 0.2 mM of 2-Iodoacetamide, 1 mM EDTA pH 8, 1 mM PMSF, 1× complete EDTA-free protease inhibitor cocktail (Roche)] plus benzonase nuclease for twenty minutes. Tissue samples were homogenized in lysis buffer plus benzonase nuclease. All lysates were cleared by centrifugation. Samples with untagged MHC molecules were subsequently incubated with GammaBind Plus Sepharose Beads (GE Healthcare) pre-charged with a pan-HLA A/B/C antibody (clone W6/32) overnight at 4 C with end-over-end rotation. BAP-tagged samples were biotinylated with 0.56 μM biotin, 1 mM ATP, and 1 μM BirA biotin ligase for 10 minutes, and subsequently incubated with High-Capacity NeutrAvidin Agarose resin for 30 minutes at 4° C. with end-over-end rotation. Following enrichment, beads were washed 2× with wash buffer A [20 mM Tris-Cl pH 8, 100 mM, NaCl, 60 mM octyl B-D-glucopyranoside, 0.2 mM of 2-Iodoacetamide, 1 mM EDTA pH 8] and wash buffer B [10 mM Tris-Cl pH 8] using a positive pressure manifold. MHC molecules were eluted using 10% acetic acid and peptides were isolated using 10K molecular weight cut-off filtration following filter passivation with 1% bovine serum albumin (BSA). If required, samples were next reduced and alkylated using 5 mM Bond-Breaker TCEP solution at 60° C. for 30 min followed by 15 mM 2-Iodoacetamide for 30 min, protected from light. Samples were next acidified using 100% formic acid and desalted using 10 mg Sep-Pak tC18 μElution plates with peptide elutions at 15% acetonitrile and 50% acetonitrile, which were subsequently pooled. The volume of eluted peptides was reduced using vacuum centrifugation.

HLA-C*07:01 [8] = target: T4, HLA-C*07:01; test: MS validation of HLA class I-presented peptide; samples MDAPCa2b, human prostate, breast cancer
Description: as §1

HLA-B*07:02 = target: T5, HLA-B*07:02 (human); test: MS validation of HLA class I-presented peptide (second allele under Allele (MS)); samples MDAPCa2b, human prostate, breast cancer
T5 construct: MHC class I molecule expressed by the cells or tissue sample (endogenous or BAP-tagged), immunopurified before peptide elution
Description: as §1

HLA-C*06:02 [9] = target: T6, HLA-C*06:02 (human); test: MS validation of HLA class I-presented peptide; sample human prostate
T6 construct: MHC class I molecule expressed by the cells or tissue sample (endogenous or BAP-tagged), immunopurified before peptide elution
Description: as §2

HLA-C*07:02 [10] = target: T3, HLA-C*07:02; test: MS validation of HLA class I-presented peptide (second allele under Allele (MS)); sample human prostate
Description: as §1

HLA-C*07:02 [11] = target: T3, HLA-C*07:02; test: MS validation of HLA class I-presented peptide; sample human prostate
Description: as §2

HLA-A*02:01 [12] = target: T2, HLA-A*02:01; test: MS validation of HLA class I-presented peptide; samples CD165, HCC1500, CAMA1
Description: as §1

HLA-A*01:01 = target: T7, HLA-A*01:01 (human); test: MS validation of HLA class I-presented peptide; samples GBM, A375
T7 construct: MHC class I molecule expressed by the cells or tissue sample (endogenous or BAP-tagged), immunopurified before peptide elution
Description: as §1

HLA-C*06:02 [13] = target: T6, HLA-C*06:02; test: MS validation of HLA class I-presented peptide; sample MDAPCa2b
Description: as §1

binding result (HLA-A*24:02 [1]): binds
B1: GYLQGLVSF (peptide)
peptide: GYLQGLVSF

binding result (HLA-A*02:01 [2]): binds
B2: SLLQHLIGL (peptide)
peptide: SLLQHLIGL

binding result (HLA-A*02:01 [3]): binds
B3: GVYDGREHTV (peptide)
peptide: GVYDGREHTV

binding result (HLA-C*07:02 [4]): binds
binding result (HLA-C*07:01 [5]): binds
B4: QRVPVSHSF (peptide)
peptide: QRVPVSHSF

binding result (HLA-A*02:01 [6]): binds
B5: SLSKILDTV (peptide)
peptide: SLSKILDTV

binding result (HLA-A*24:02 [7]): binds
B6: LFHPEDTGQVF (peptide)
peptide: LFHPEDTGQVF

binding result (HLA-C*07:01 [8]): binds
binding result (HLA-B*07:02): binds
B7: HPEYNRPLL (peptide)
peptide: HPEYNRPLL

binding result (HLA-C*06:02 [9]): binds
binding result (HLA-C*07:02 [10]): binds
B8: IRNKSVILL (peptide)
peptide: IRNKSVILL

binding result (HLA-C*07:02 [11]): binds
B9: LRPGDDSTL (peptide)
peptide: LRPGDDSTL
notes: 4002 is used here

binding result (HLA-A*02:01 [12]): binds
B10: LLSHGAVIEV (peptide)
peptide: LLSHGAVIEV

binding result (HLA-A*01:01): binds
B11: EVDPASNTY (peptide)
peptide: EVDPASNTY

binding result (HLA-C*06:02 [13]): binds
B12: AYSEKVTEF (peptide)
peptide: AYSEKVTEF
